Read-outs that look alike come from different tables or passages of the source.
Tests used:
Ded1-His6 [1] = biological target: T1, Ded1-His6 (S. cerevisiae, UniProt P06634 1-604); test: cell-based or functional assay
Ded1-His6 [2] = biological target: T1, Ded1-His6; test: pull-down; purified GST-eIF4G1 fragments bound to glutathione Sepharose beads, incubated with Ded1, eluted with 10 mM reduced glutathione; Coomassie-stained SDS PAGE, verified by western blot for Ded1; same results with or without RNase I or AMP-PNP; details: both partners purified
Ded1-His6 [3] = biological target: T1, Ded1-His6
eIF4G9 = biological target: T2, eIF4G9 (S. cerevisiae, UniProt P39935 160-492); test: pull-down; 7-methyl-GTP Sepharose beads loaded with 5 μg purified eIF4E or Cbp20, 5 μg of the purified proteins added with 50 U RNase I, 90 min on ice, TpB buffer (20 mM HEPES pH 7.9, 100 mM KCl, 2 mM MgCl2, 2 mM DTT), eluted with 1 mM 7-methyl-GTP; Coomassie-stained SDS PAGE; details: both partners purified
T2 construct: also called eIF4G9 fragment (160–492); shorten version of eIF4G1; source: E. coli (pGEX-1λT), purified
T2 sequence (looked up): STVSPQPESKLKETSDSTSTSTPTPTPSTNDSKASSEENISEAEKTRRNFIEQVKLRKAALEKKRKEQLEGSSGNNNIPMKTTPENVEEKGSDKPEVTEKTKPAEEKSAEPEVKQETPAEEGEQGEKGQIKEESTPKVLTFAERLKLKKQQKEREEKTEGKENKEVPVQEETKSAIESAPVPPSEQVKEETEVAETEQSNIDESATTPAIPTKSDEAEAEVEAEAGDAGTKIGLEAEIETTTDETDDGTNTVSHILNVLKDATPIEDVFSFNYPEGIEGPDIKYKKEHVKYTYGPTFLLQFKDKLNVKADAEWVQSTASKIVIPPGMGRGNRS

T1 sequence (P06634 whole entry, the tested form may be a part): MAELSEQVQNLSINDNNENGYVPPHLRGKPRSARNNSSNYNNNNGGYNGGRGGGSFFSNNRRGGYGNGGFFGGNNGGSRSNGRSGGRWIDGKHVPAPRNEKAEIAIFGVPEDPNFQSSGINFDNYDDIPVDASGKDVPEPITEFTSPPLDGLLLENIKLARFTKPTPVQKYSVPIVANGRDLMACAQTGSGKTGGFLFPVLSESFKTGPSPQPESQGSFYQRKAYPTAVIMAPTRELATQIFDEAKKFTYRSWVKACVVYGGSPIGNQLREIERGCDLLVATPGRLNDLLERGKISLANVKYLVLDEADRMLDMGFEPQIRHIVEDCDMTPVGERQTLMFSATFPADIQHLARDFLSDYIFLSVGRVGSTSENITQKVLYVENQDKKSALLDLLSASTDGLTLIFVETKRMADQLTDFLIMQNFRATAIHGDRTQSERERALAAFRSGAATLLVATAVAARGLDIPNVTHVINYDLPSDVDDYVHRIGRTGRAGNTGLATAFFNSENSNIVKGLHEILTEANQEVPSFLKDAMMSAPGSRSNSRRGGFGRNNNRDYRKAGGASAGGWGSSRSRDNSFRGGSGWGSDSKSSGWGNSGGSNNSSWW

B1: Gle1 (recombinant) (natural protein, S. cerevisiae, UniProt Q12315 1-538, looked up)
chain: MRFVFDEVFNSDTDSPEFEETCSTTSSTSSQCPTPEPSPAIKLPSFTKVGTKKLVNESVVILDPALENALRDLNLQSKLIPINEPIVAASSIIVPHSTNMPLPRASHSSLLDNAKNSNATAPLLEAIEESFQRKMQNLVLANQKEIQSIRENKRRVEEQRKRKEEEERKRKEAEEKAKREQELLRQKKDEEERKRKEAEAKLAQQKQEEERKKIEEQNEKERQLKKEHEAKLLQQKDKLGKAVTNFDKISKMFWHYKDKIAQIKQDIVLPIKKADVNVRNLLSRHKRKINPKFGQLTNSNQQLFKIQNELTQLINDTKGDSLAYHWILNFIAKAVVHQAETEVRVKPESALPLGKLTLYLLVQFPELQELFMARLVKKCPFVIGFTCEIDTEKGRQNMGWKRNNENKWEDNTSYDERMGGILSLFAIITRLQLPQEFITTTSHPFPIALSWHILARICNTPLNLITNTHFVILGSWWDAAAVQFLQAYGNQASKLLILIGEELTSRMAEKKYVGAARLRILLEAWQNNNMESFPEMSP
RNA-dependent ATPase activity, % Ded1 (Ded1-His6 [1]): 191%

B2: GST-eIF4G1 fragment 882-952 (domain or fragment, S. cerevisiae, UniProt P39935 882-952, looked up)
chain: RSNSRRTNNSSNRHSFRRDAPPASKDSFITTRTYSQRNSQRAPPPKEEPAAPTSTATNMFSALMGESDDEE
notes: eIF4G1 of S. cerevisiae, residues 882-952; also called 882–952 fragment; source: E. coli (pGEX-2T), purified on glutathione Sepharose; not shown: GST, N-terminal, kept
binding result (Ded1-His6 [2]): binds

B3: Pab1 with an amino-terminal His6 tag (natural protein, S. cerevisiae, UniProt P04147 1-577, looked up)
chain: MADITDKTAEQLENLNIQDDQKQAATGSESQSVENSSASLYVGDLEPSVSEAHLYDIFSPIGSVSSIRVCRDAITKTSLGYAYVNFNDHEAGRKAIEQLNYTPIKGRLCRIMWSQRDPSLRKKGSGNIFIKNLHPDIDNKALYDTFSVFGDILSSKIATDENGKSKGFGFVHFEEEGAAKEAIDALNGMLLNGQEIYVAPHLSRKERDSQLEETKAHYTNLYVKNINSETTDEQFQELFAKFGPIVSASLEKDADGKLKGFGFVNYEKHEDAVKAVEALNDSELNGEKLYVGRAQKKNERMHVLKKQYEAYRLEKMAKYQGVNLFVKNLDDSVDDEKLEEEFAPYGTITSAKVMRTENGKSKGFGFVCFSTPEEATKAITEKNQQIVAGKPLYVAIAQRKDVRRSQLAQQIQARNQMRYQQATAAAAAAAAGMPGQFMPPMFYGVMPPRGVPFNGPNPQQMNPMGGMPKNGMPPQFRNGPVYGVPPQGGFPRNANDNNQFYQQKQRQALGEQLYKKVSAKTSNEEAAGKITGMILDLPPQEVFPLLESDELFEQHYKEASAAYESFKKEQEQQTEQA
RNA-dependent ATPase activity, % Ded1 (Ded1-His6 [1]): 119%

B4: GST-eIF4G1 fragment 1-596 (domain or fragment, S. cerevisiae, UniProt P39935 1-596, looked up)
chain: MTDETAHPTQSASKQESAALKQTGDDQQESQQQRGYTNYNNGSNYTQKKPYNSNRPHQQRGGKFGPNRYNNRGNYNGGGSFRGGHMGANSSNVPWTGYYNNYPVYYQPQQMAAAGSAPANPIPVEEKSPVPTKIEITTKSGEHLDLKEQHKAKLQSQERSTVSPQPESKLKETSDSTSTSTPTPTPSTNDSKASSEENISEAEKTRRNFIEQVKLRKAALEKKRKEQLEGSSGNNNIPMKTTPENVEEKGSDKPEVTEKTKPAEEKSAEPEVKQETPAEEGEQGEKGQIKEESTPKVLTFAERLKLKKQQKEREEKTEGKENKEVPVQEETKSAIESAPVPPSEQVKEETEVAETEQSNIDESATTPAIPTKSDEAEAEVEAEAGDAGTKIGLEAEIETTTDETDDGTNTVSHILNVLKDATPIEDVFSFNYPEGIEGPDIKYKKEHVKYTYGPTFLLQFKDKLNVKADAEWVQSTASKIVIPPGMGRGNRSRDSGRFGNNSSRGHDFRNTSVRNMDDRANSRTSSKRRSKRMNDDRRSNRSYTSRRDRERGSYRNEEKREDDKPKEEVAPLVPSANRWVPKFKSKKTEKKLAPDG
RNA-dependent ATPase activity, % Ded1 (Ded1-His6 [1]): 206%

B5: Cbp80 (557–861) (domain or fragment)
chain: QLINYYQSLFTGYTVEEDSVRKNDLYFRQEGVPMENTVRKILDYTHKANNSREVTELESILGELKNEYGSIISDFNRFVIILLVQAVTDSGSRSLSHANKYINDLKEDLKTIFAKIELDIETKEYIIIEAVLTFWNANPQTGFLVADAFKYAGLLTSRTIFTFIFNETGLKNNGLIEATAIEAVFRNLSQQISEENESGNNFEFVFERLCTIANSTIDLLDVNADEDIEIPKVNGEMDIDDIEDDKLDLKWKYFTVIGFIKSILRRYSHEYRELADKFIANIDNAIPHESTRRTISNWIQETKEV
RNA-dependent ATPase activity, % Ded1 (Ded1-His6 [3]): 144%

B6: 1–387-GST fragment of eIF4G1 (domain or fragment, S. cerevisiae, UniProt P39935 1-387, looked up)
chain: MTDETAHPTQSASKQESAALKQTGDDQQESQQQRGYTNYNNGSNYTQKKPYNSNRPHQQRGGKFGPNRYNNRGNYNGGGSFRGGHMGANSSNVPWTGYYNNYPVYYQPQQMAAAGSAPANPIPVEEKSPVPTKIEITTKSGEHLDLKEQHKAKLQSQERSTVSPQPESKLKETSDSTSTSTPTPTPSTNDSKASSEENISEAEKTRRNFIEQVKLRKAALEKKRKEQLEGSSGNNNIPMKTTPENVEEKGSDKPEVTEKTKPAEEKSAEPEVKQETPAEEGEQGEKGQIKEESTPKVLTFAERLKLKKQQKEREEKTEGKENKEVPVQEETKSAIESAPVPPSEQVKEETEVAETEQSNIDESATTPAIPTKSDEAEAEVEAEAGDA
notes: not among the constructs of the methods
binding result (Ded1-His6 [2]): binds

B7: eIF4E with an amino-terminal His6 tag (natural protein, S. cerevisiae, UniProt P07260 1-213, looked up)
chain: MSVEEVSKKFEENVSVDDTTATPKTVLSDSAHFDVKHPLNTKWTLWYTKPAVDKSESWSDLLRPVTSFQTVEEFWAIIQNIPEPHELPLKSDYHVFRNDVRPEWEDEANAKGGKWSFQLRGKGADIDELWLRTLLAVIGETIDEDDSQINGVVLSIRKGGNKFALWTKSEDKEPLLRIGGKFKQVLKLTDDGHLEFFPHSSANGRHPQPSITL
notes: eIF4E (CDC33) of S. cerevisiae cloned into the NdeI-BamHI sites of pET15b; also called CDC33; source: E. coli (pET15b), purified on nickel-agarose
binding result (eIF4G9): binds
RNA-dependent ATPase activity, % Ded1 (Ded1-His6 [1]): 105%

B8: GST-eIF4G1 fragment 542-952 (domain or fragment, S. cerevisiae, UniProt P39935 542-952, looked up)
chain: SYTSRRDRERGSYRNEEKREDDKPKEEVAPLVPSANRWVPKFKSKKTEKKLAPDGKTELLDKDEVERKMKSLLNKLTLEMFDAISSEILAIANISVWETNGETLKAVIEQIFLKACDEPHWSSMYAQLCGKVVKELNPDITDETNEGKTGPKLVLHYLVARCHAEFDKGWTDKLPTNEDGTPLEPEMMSEEYYAAASAKRRGLGLVRFIGFLYRLNLLTGKMMFECFRRLMKDLTDSPSEETLESVVELLNTVGEQFETDSFRTGQATLEGSQLLDSLFGILDNIIQTAKISSRIKFKLIDIKELRHDKNWNSDKKDNGPKTIQQIHEEEERQRQLKNNSRSNSRRTNNSSNRHSFRRDAPPASKDSFITTRTYSQRNSQRAPPPKEEPAAPTSTATNMFSALMGESDDEE
RNA-dependent ATPase activity, % Ded1 (Ded1-His6 [1]): 141%

B9: GST-NAB2-HIS6 (natural protein, S. cerevisiae, UniProt P32505 1-525, looked up)
chain: MSQEQYTENLKVIVAEKLAGIPNFNEDIKYVAEYIVLLIVNGGTVESVVDELASLFDSVSRDTLANVVQTAFFALEALQQGESAENIVSKIRMMNAQSLGQSDIAQQQQQQQQQQQPDIAQQQPQQQPQQQPQQQPQQQPQQQPQQQPQQQPQQQPQLQPLQPQLGTQNAMQTDAPATPSPISAFSGVVNAAAPPQFAPVDNSQRFTQRGGGAVGKNRRGGRGGNRGGRNNNSTRFNPLAKALGMAGESNMNFTPTKKEGRCRLFPHCPLGRSCPHAHPTKVCNEYPNCPKPPGTCEFLHPNEDEELMKEMERTREEFQKRKADLLAAKRKPVQTGIVLCKFGALCSNPSCPFGHPTPANEDAKVIDLMWCDKNLTCDNPECRKAHSSLSKIKEVKPISQKKAAPPPVEKSLEQCKFGTHCTNKRCKYRHARSHIMCREGANCTRIDCLFGHPINEDCRFGVNCKNIYCLFRHPPGRVLPEKKGAAPNSNVPTNERPFALPENAIIENAPPQTSFTHQEQDTEMN
RNA-dependent ATPase activity, % Ded1 (Ded1-His6 [1]): 150%

B10: Cbp80 (1–556) (domain or fragment)
chain: MFNRKRRGDFDEDENYRDFRPRMPKRQRIPPVVQLCKEMMPDIRTIGESVKAFEDDIKFLSEAIMNEYGHEDYFNNALLSTLNAVVVEQPQKQAAIALLTMVVNSKNNVAGKSIINYFFEELQKWCKQTYNDEFKSTSNETGPWNKIKLILRFLSILSPMFLVDELINIYKSLFELSIELNNLDPGNRVPLSEAIYTNTLLNIPYLFFFNRNNDGLRTKVEELLAYVEQNYLVKTTDINLLREYNGEPPYEMVELVRVVLPNVKKALINNLEQLNELFPDWNHLLTPQTGDEGFNDALTLPSVDDLKSFVRLNKNFGSVDSMWKTPRYAFHVYLPNSAGNFETVVPISTYAGQLFNDIIIDLVESLEFNRKEVARQVITLDLFFKAGIFTEPGESIAQLIATYEENPLAPTFKIEDLAIETILGLIFKLPSVSQPFAYFYTLLVDICQNSPKAIAPVFGRAFRFFYSHLDSLDFELKLRYLDWFSIQMSNFNFSWKWNEWEDDSIKFGKYFYNPKVNFAKNLIQKELRLTSNFSEVEDSLPQEFTKYLDTSYIPRD
RNA-dependent ATPase activity, % Ded1 (Ded1-His6 [3]): 220%
